Experimental data reported in US20220204611A1 (Amgen, published 2022).

T1: human TREM2 (human, UniProt Q9NZC2 19-174, limits assumed)
T1 sequence: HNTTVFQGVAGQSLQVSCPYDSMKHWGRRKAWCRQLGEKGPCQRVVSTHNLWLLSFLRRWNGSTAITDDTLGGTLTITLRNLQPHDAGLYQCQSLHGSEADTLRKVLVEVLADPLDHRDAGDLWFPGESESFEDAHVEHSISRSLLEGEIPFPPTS


How the values were obtained:
human TREM2 [1] = target: T1, human TREM2; test: yeast-displayed Fab FACS, 2nd screen 2 nM
human TREM2 [2] = target: T1, human TREM2; test: yeast-displayed Fab FACS, 1st screen 10 nM
human TREM2 [3] = target: T1, human TREM2; test: yeast-displayed Fab FACS, 2nd screen 10 nM

Binder	binding signal fold over 6E7 parental (human TREM2 [1])	binding signal fold over 6E7 parental (human TREM2 [2])	binding signal fold over 6E7 parental (human TREM2 [3])
V5 (Fab, V domains shown) VH: EVQLVQSGAEVKKPGESLKISCKGSGYSFTSYWIAWVRQMPGKGLEWMGTIYPGDSDTRYSPSFQGQVTISADKSISTAYLQWSSLKASDTAMYFCARQRTFYYDSSDYFDYWGQGTLVTVSS VL: DIQMTQSPSSVSASVGDRVTITCRASQGISSWLAWYQQKPGKAPKLLIYAASSLQNGVPSRFSGSGSGTDFTLTISSLQPEDFATYFCQQADSHPRTFGQGTKLEIK	1.25 fold	2.73 fold	2.84 fold
V13 (Fab, V domains shown) VH: EVQLVQSGAEVKKPGESLKISCKGSGYSFGSYWIAWVRQMPGKGLEWMGIIYPGDSDTRYSASFQGQVTISADKSISTAYLQWSSLKASDTAMYFCARGRTFYYDSSDYFDYWGQGTLVTVSS VL: DIQMTQSPSSVSASVGDRVTITCRASQGISSWLAWYQQKPGKAPKLLIYAASSLQGGVPSRFSGSGSGTDFTLTISSLQPEDFATYFCQQADSMPRTFGQGTKLEIK	1.15 fold	1.31 fold	1.35 fold
V14 (Fab, V domains shown) VH: EVQLVQSGAEVKKPGESLKISCKGSGYSFGSYWIAWVRQMPGKGLEWMGIIYPGDQDTRYSPSFQGQVTISADKSISTAYLQWSSLKASDTAMYFCARGRTFYYDSSDYFDYWGQGTLVTVSS VL: DIQMTQSPSSVSASVGDRVTITCRASQGISSWLAWYQQKPGKAPKLLIYAASRLQNGVPSRFSGSGSGTDFTLTISSLQPEDFATYFCQQADSFPRTFGQGTKLEIK	2.57 fold	4.71 fold	4.64 fold
V15 (Fab, V domains shown) VH: EVQLVQSGAEVKKPGESLKISCKGSGYSFASYWIAWVRQMPGKGLEWMGTIYPGDSDTRYSPSFQGQVTISADKSISTAYLQWSSLKASDTAMYFCARSRTFYYDSSDYFDYWGQGTLVTVSS VL: DIQMTQSPSSVSASVGDRVTITCRASQGISSWLAWYQQKPGKAPKLLIYAASWLQNGVPSRFSGSGSGTDFTLTISSLQPEDFATYFCQQADSYPRTFGQGTKLEIK	4.72 fold	5.23 fold	4.78 fold
V16 (Fab, V domains shown) VH: EVQLVQSGAEVKKPGESLKISCKGSGYSMTSYWIAWVRQMPGKGLEWMGIIYPGDGDTRYSPSFQGQVTISADKSISTAYLQWSSLKASDTAMYFCARSRTFYYDSSDYFDYWGQGTLVTVSS VL: DIQMTQSPSSVSASVGDRVTITCRASQGISSWLAWYQQKPGKAPKLLIYAASNLQNGVPSRFSGSGSGTDFTLTISSLQPEDFATYFCQQADSFPRTFGQGTKLEIK	3.57 fold	4.01 fold	4.04 fold
V17 (Fab, V domains shown) VH: EVQLVQSGAEVKKPGESLKISCKGSGYSFGSYWIAWVRQMPGKGLEWMGIIYPGDSDTRYSPSFQGQVTISADKSISTAYLQWSSLKASDTAMYFCARSRTFYYDSSDYFDYWGQGTLVTVSS VL: DIQMTQSPSSVSASVGDRVTITCRASQGISSWLAWYQQKPGKAPKLLIYAASSRQNGVPSRFSGSGSGTDFTLTISSLQPEDFATYFCQQADSSPRTFGQGTKLEIK	4.22 fold	5.37 fold	5.51 fold
V24 (Fab, V domains shown) VH: EVQLVQSGAEVKKPGESLKISCKGSGYSFTSYWIAWVRQMPGKGLEWMGIIYPGDSDVRYSPSFQGQVTISADKSISTAYLQWSSLKASDTAMYFCARSRTFYYDSSDYFDYWGQGTLVTVSS VL: DIQMTQSPSSVSASVGDRVTITCRASQGISSWLAWYQQKPGKAPKLLIYAASSLQKGVPSRFSGSGSGTDFTLTISSLQPEDFATYFCQQADSFPHTFGQGTKLEIK	1.42 fold	2.64 fold	2.9 fold
V25 (Fab, V domains shown) VH: EVQLVQSGAEVKKPGESLKISCKGSGYSFGSYWIAWVRQMPGKGLEWMGLIYPGDSDTRYSPSFQGQVTISADKSISTAYLQWSSLKASDTAMYFCARSRTFYYDSSDYFDYWGQGTLVTVSS VL: DIQMTQSPSSVSASVGDRVTITCRASQGISSWLAWYQQKPGKAPKLLIYAASSLANGVPSRFSGSGSGTDFTLTISSLQPEDFATYFCQQADSMPRTFGQGTKLEIK	3.15 fold	4.23 fold	4.7 fold
V26 (Fab, V domains shown) VH: EVQLVQSGAEVKKPGESLKISCKGSGYSFTSYWIGWVRQMPGKGLEWMGTIYPGDSDTRYSPSFQGQVTISADKSISTAYLQWSSLKASDTAMYFCARQRTMYYDSSDYFDAWGQGTLVTVSS VL: DIQMTQSPSSVSASVGDRVTITCRASQGISSWLAWYQQKPGKAPKLLIYAASSLQRGVPSRFSGSGSGTDFTLTISSLQPEDFATYFCQQADSYPRTFGQGTKLEIK	2.83 fold	3.57 fold	3.47 fold
V27 (Fab, V domains shown) VH: EVQLVQSGAEVKKPGESLKISCKGSGYSFTSYWIAWVRQMPGKGLEWMGIIYPGDSDTRYAPSFQGQVTISADKSISTAYLQWSSLKASDTAMYFCVRSRTFYYDSSDYFDYWGQGTLVTVSS VL: DIQMTQSPSSVSASVGDRVTITCRASQGISSWLAWYQQKPGKAPKLLIYAASSLQRGVPSRFSGSGSGTDFTLTISSLQPEDFATYFCQQADSFPRTFGQGTKLEIK	5.67 fold	5.5 fold	5.69 fold
V29 (Fab, V domains shown) VH: EVQLVQSGAEVKKPGESLKISCKGSGYSFKSYWIAWVRQMPGKGLEWMGIIYPGDSDTRYSPSFQGQVTISADKSISTAYLQWSSLKASDTAMYFCARQRTFYYDSSDYFDYWGQGTLVTVSS VL: DIQMTQSPSSVSASVGDRVTITCRASQGISSWLAWYQQKPGKAPKLLIYAASSLQNGVPSRFSGSGSGTDFTLTISSLQPEDFATYFCQQADSFPRTFGQGTKLEIK	0.84 fold	1.53 fold	1.67 fold
V36 (Fab, V domains shown) VH: EVQLVQSGAEVKKPGESLKISCKGSGYSFTSYWLAWVRQMPGKGLEWMGIIYPGDSDTRYSPSFQGQVTISADKSISTAYLQWSSLKASDTAMYFCARSRTFYYDSSDYFDYWGQGTLVTVSS VL: DIQMTQSPSSVSASVGDRVTITCRASQGISSWLAWYQQKPGKAPKLLIYAASSRQNGVPSRFSGSGSGTDFTLTISSLQPEDFATYFCQQADSYPRTFGQGTKLEIK	4 fold	3.38 fold	3.44 fold
V37 (Fab, V domains shown) VH: EVQLVQSGAEVKKPGESLKISCKGSGYSHTSYWIAWVRQMPGKGLEWMGIIYPGDSDTRYSPSFAGQVTISADKSISTAYLQWSSLKASDTAMYFCARSRTFYYDSSDYFDYWGQGTLVTVSS VL: DIQMTQSPSSVSASVGDRVTITCRASQGISSWLAWYQQKPGKAPKLLIYAASSLQWGVPSRFSGSGSGTDFTLTISSLQPEDFATYFCQQADSYPRTFGQGTKLEIK	3.69 fold	3.46 fold	3.49 fold
V40 (Fab, V domains shown) VH: EVQLVQSGAEVKKPGESLKISCKGSGYSFGSYWIAWVRQMPGKGLEWMGIIYPGDSDVRYSPSFQGQVTISADKSISTAYLQWSSLKASDTAMYFCARQRTFYYDSSDYSDYWGQGTLVTVSS VL: DIQMTQSPSSVSASVGDRVTITCRASQGISSWLAWYQQKPGKAPKLLIYAASSLQLGVPSRFSGSGSGTDFTLTISSLQPEDFATYFCQQADRFPRTFGQGTKLEIK	3.41 fold	4.48 fold	4.16 fold
V41 (Fab, V domains shown) VH: EVQLVQSGAEVKKPGESLKISCKGSGYSFTSYWIAWVRQMPGKGLEWMGTIYPGDSDTRYSPSFQGQVTISADKSISTAYLQWSSLKASDTAMYFCARQRTFYYDSSDYFDYWGQGTLVTVSS VL: DIQMTQSPSSVSASVGDRVTITCRASQGISSWLAWYQQKPGKAPKLLIYAASSLQNGVPSRFSGSGSGTDFTLTISSLQPEDFATYFCQQADSFPRTFGQGTKLEIK	0.58 fold	1.74 fold	1.72 fold
V48 (Fab, V domains shown) VH: EVQLVQSGAEVKKPGESLKISCKGSGYSFGSYWIAWVRQMPGKGLEWMGIIYPGDSDVRYSPSFQGQVTISADKSISTAYLQWSSLKASDTAMYFCARMRTFYYDSSDYFDYWGQGTLVTVSS VL: DIQMTQSPSSVSASVGDRVTITCRASQGISSWLAWYQQKPGKAPKLLIYAASSLQTGVPSRFSGSGSGTDFTLTISSLQPEDFATYFCQQADSLPRTFGQGTKLEIK	2.3 fold	2.42 fold	2.54 fold
V49 (Fab, V domains shown) VH: EVQLVQSGAEVKKPGESLKISCKGSGYSFNSYWIAWVRQMPGKGLEWMGTIYPGDSDTRLSPSFQGQVTISADKSISTAYLQWSSLKASDTAMYFCARSRTFYYDSSDYFDYWGQGTLVTVSS VL: DIQMTQSPSSVSASVGDRVTITCRASQGISSWLAWYQQKPGKAPKLLIYAASSRQNGVPSRFSGSGSGTDFTLTISSLQPEDFATYFCQQADSYPRTFGQGTKLEIK	5.02 fold	6.51 fold	6.58 fold
